Reference: article PMC6328869, “Functional and structural studies of tolloid-like 1 mutants associated with atrial-septal defect 6” (Bioscience Reports, 2018)

T1: recombinant murine chordin (murine, UniProt Q9Z0E2 27-948)
T1 construct: Chordin, murine, recombinant (R&D Systems); The source and species of chordin are told for the cleavage assay; source: bought: R&D Systems
T1 sequence (looked up): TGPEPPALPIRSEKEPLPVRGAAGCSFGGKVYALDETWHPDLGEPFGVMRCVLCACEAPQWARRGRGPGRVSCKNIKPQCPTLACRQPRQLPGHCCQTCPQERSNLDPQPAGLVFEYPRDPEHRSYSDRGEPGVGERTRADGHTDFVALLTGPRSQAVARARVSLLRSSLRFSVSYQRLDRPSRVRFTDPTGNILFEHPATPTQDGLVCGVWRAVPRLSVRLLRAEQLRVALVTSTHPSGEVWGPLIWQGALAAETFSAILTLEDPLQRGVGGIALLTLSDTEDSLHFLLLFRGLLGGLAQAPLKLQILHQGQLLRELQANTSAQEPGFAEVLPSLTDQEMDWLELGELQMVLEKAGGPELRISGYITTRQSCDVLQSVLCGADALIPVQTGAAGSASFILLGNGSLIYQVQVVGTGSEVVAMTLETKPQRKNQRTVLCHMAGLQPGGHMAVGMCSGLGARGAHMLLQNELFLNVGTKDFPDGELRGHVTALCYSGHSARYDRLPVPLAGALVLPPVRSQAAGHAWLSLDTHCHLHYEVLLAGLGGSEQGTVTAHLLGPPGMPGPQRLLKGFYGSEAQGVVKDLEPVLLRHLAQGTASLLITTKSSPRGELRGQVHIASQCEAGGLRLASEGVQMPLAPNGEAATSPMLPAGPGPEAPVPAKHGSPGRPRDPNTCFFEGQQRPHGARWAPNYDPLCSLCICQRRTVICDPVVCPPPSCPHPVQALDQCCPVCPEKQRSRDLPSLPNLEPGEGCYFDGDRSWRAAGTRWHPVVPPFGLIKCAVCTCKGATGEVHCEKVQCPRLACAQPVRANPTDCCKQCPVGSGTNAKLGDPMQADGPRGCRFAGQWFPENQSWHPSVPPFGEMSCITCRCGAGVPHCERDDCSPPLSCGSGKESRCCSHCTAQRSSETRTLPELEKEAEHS


Key:
[1] = molecular target: T1, recombinant murine chordin; experiment: SPR; Sensiq Pioneer biosensor; chordin amine-coupled (NHS/EDC, 10 mM acetate pH 4.5) to a COOH1 SPR chip; TLL1 variant as free analyte at 10-400 nM, 10 ul/min for 11 min; HBS-TE (HEPES-buffered saline, 0.005% Tween 20), 25 °C; regeneration with 10 mM HCl; global fitting; Kd from koff/kon; details: both partners purified
[2] = molecular target: T1, recombinant murine chordin; experiment: cell-based or functional assay

Ka [1] [M⁻¹]	Kd [1] [µM]	koff [1] [s⁻¹]	kon [1] [M⁻¹ s⁻¹]	cleavage of chordin (densitometry of the intact chordin band after SDS/PAGE), activity against wild-type TLL1 [2]	Binder
8.6e+06	0.117	0.000305	2600		recombinant wild-type mammalian tolloid-like 1 (TLL1) (enzyme, human, UniProt O43897-1 148-1013, looked up, Human tolloid-like 1 (TLL1), functional enzyme lacking the signal peptide and the latency pro-domain; encoded by nucleotides 1089-3686 of NM_012464.4 (mRNA variant 1 TLL1); Expressed behind the signal peptide of the procollagen I alpha 1 chain (nucleotides 5127-5192 of NM_007400.1 as printed) for secretion; also called WT; native TLL1; source: HT-1080 cells, stably transfected (pIRESneo3), …) AATSRTERIWPGGVIPYVIGGNFTGSQRAMFKQAMRHWEKHTCVTFIERSDEESYIVFTYRPCGCCSYVGRRGNGPQAISIGKNCDKFGIVVHELGHVIGFWHEHTRPDRDNHVTIIRENIQPGQEYNFLKMEPGEVNSLGERYDFDSIMHYARNTFSRGMFLDTILPSRDDNGIRPAIGQRTRLSKGDIAQARKLYRCPACGETLQESNGNLSSPGFPNGYPSYTHCIWRVSVTPGEKIVLNFTTMDLYKSSLCWYDYIEVRDGYWRKSPLLGRFCGDKLPEVLTSTDSRMWIEFRSSSNWVGKGFAAVYEAICGGEIRKNEGQIQSPNYPDDYRPMKECVWKITVSESYHVGLTFQSFEIERHDNCAYDYLEVRDGTSENSPLIGRFCGYDKPEDIRSTSNTLWMKFVSDGTVNKAGFAANFFKEEDECAKPDRGGCEQRCLNTLGSYQCACEPGYELGPDRRSCEAACGGLLTKLNGTITTPGWPKEYPPNKNCVWQVVAPTQYRISVKFEFFELEGNEVCKYDYVEIWSGLSSESKLHGKFCGAEVPEVITSQFNNMRIEFKSDNTVSKKGFKAHFFSDKDECSKDNGGCQHECVNTMGSYMCQCRNGFVLHDNKHDCKEAECEQKIHSPSGLITSPNWPDKYPSRKECTWEISATPGHRIKLAFSEFEIEQHQECAYDHLEVFDGETEKSPILGRLCGNKIPDPLVATGNKMFVRFVSDASVQRKGFQATHSTECGGRLKAESKPRDLYSHAQFGDNNYPGQVDCEWLLVSERGSRLELSFQTFEVEEEADCGYDYVELFDGLDSTAVGLGRFCGSGPPEEIYSIGDSVLIHFHTDDTINKKGFHIRYKSIRYPDTTHTKK
41000	25	0.00091	37	~25 % lower than wild-type TLL1	recombinant TLL1 mutated variant I629V (enzyme, human, UniProt O43897-1 148-1013, looked up, Human tolloid-like 1 (TLL1), functional enzyme lacking the signal peptide and the latency pro-domain; encoded by nucleotides 1089-3686 of NM_012464.4 (mRNA variant 1 TLL1); mutation found in ASD6 patients, in the CUB3 domain; Same construct as m1 (procollagen I alpha 1 signal peptide for secretion, C-terminal 7xHis) with the point mutation; also called Ile629Val; mutation 3; source: HT-1080 …) AATSRTERIWPGGVIPYVIGGNFTGSQRAMFKQAMRHWEKHTCVTFIERSDEESYIVFTYRPCGCCSYVGRRGNGPQAISIGKNCDKFGIVVHELGHVIGFWHEHTRPDRDNHVTIIRENIQPGQEYNFLKMEPGEVNSLGERYDFDSIMHYARNTFSRGMFLDTILPSRDDNGIRPAIGQRTRLSKGDIAQARKLYRCPACGETLQESNGNLSSPGFPNGYPSYTHCIWRVSVTPGEKIVLNFTTMDLYKSSLCWYDYIEVRDGYWRKSPLLGRFCGDKLPEVLTSTDSRMWIEFRSSSNWVGKGFAAVYEAICGGEIRKNEGQIQSPNYPDDYRPMKECVWKITVSESYHVGLTFQSFEIERHDNCAYDYLEVRDGTSENSPLIGRFCGYDKPEDIRSTSNTLWMKFVSDGTVNKAGFAANFFKEEDECAKPDRGGCEQRCLNTLGSYQCACEPGYELGPDRRSCEAACGGLLTKLNGTVTTPGWPKEYPPNKNCVWQVVAPTQYRISVKFEFFELEGNEVCKYDYVEIWSGLSSESKLHGKFCGAEVPEVITSQFNNMRIEFKSDNTVSKKGFKAHFFSDKDECSKDNGGCQHECVNTMGSYMCQCRNGFVLHDNKHDCKEAECEQKIHSPSGLITSPNWPDKYPSRKECTWEISATPGHRIKLAFSEFEIEQHQECAYDHLEVFDGETEKSPILGRLCGNKIPDPLVATGNKMFVRFVSDASVQRKGFQATHSTECGGRLKAESKPRDLYSHAQFGDNNYPGQVDCEWLLVSERGSRLELSFQTFEVEEEADCGYDYVELFDGLDSTAVGLGRFCGSGPPEEIYSIGDSVLIHFHTDDTINKKGFHIRYKSIRYPDTTHTKK
55000	18	0.0006	33	~25 % lower than wild-type TLL1	recombinant TLL1 mutated variant V238A (enzyme, human, UniProt O43897-1 148-1013, looked up, Human tolloid-like 1 (TLL1), functional enzyme lacking the signal peptide and the latency pro-domain; encoded by nucleotides 1089-3686 of NM_012464.4 (mRNA variant 1 TLL1); mutation found in ASD6 patients, in the catalytic domain; Same construct as m1 (procollagen I alpha 1 signal peptide for secretion, C-terminal 7xHis) with the point mutation; also called Val238Ala; mutation 2; source: HT-1080 …) AATSRTERIWPGGVIPYVIGGNFTGSQRAMFKQAMRHWEKHTCVTFIERSDEESYIVFTYRPCGCCSYVGRRGNGPQAISIGKNCDKFGIAVHELGHVIGFWHEHTRPDRDNHVTIIRENIQPGQEYNFLKMEPGEVNSLGERYDFDSIMHYARNTFSRGMFLDTILPSRDDNGIRPAIGQRTRLSKGDIAQARKLYRCPACGETLQESNGNLSSPGFPNGYPSYTHCIWRVSVTPGEKIVLNFTTMDLYKSSLCWYDYIEVRDGYWRKSPLLGRFCGDKLPEVLTSTDSRMWIEFRSSSNWVGKGFAAVYEAICGGEIRKNEGQIQSPNYPDDYRPMKECVWKITVSESYHVGLTFQSFEIERHDNCAYDYLEVRDGTSENSPLIGRFCGYDKPEDIRSTSNTLWMKFVSDGTVNKAGFAANFFKEEDECAKPDRGGCEQRCLNTLGSYQCACEPGYELGPDRRSCEAACGGLLTKLNGTITTPGWPKEYPPNKNCVWQVVAPTQYRISVKFEFFELEGNEVCKYDYVEIWSGLSSESKLHGKFCGAEVPEVITSQFNNMRIEFKSDNTVSKKGFKAHFFSDKDECSKDNGGCQHECVNTMGSYMCQCRNGFVLHDNKHDCKEAECEQKIHSPSGLITSPNWPDKYPSRKECTWEISATPGHRIKLAFSEFEIEQHQECAYDHLEVFDGETEKSPILGRLCGNKIPDPLVATGNKMFVRFVSDASVQRKGFQATHSTECGGRLKAESKPRDLYSHAQFGDNNYPGQVDCEWLLVSERGSRLELSFQTFEVEEEADCGYDYVELFDGLDSTAVGLGRFCGSGPPEEIYSIGDSVLIHFHTDDTINKKGFHIRYKSIRYPDTTHTKK
24000	42	0.0018	43	50 % lower than wild-type TLL1	recombinant TLL1 mutated variant M182L (enzyme, human, UniProt O43897-1 148-1013, looked up, Human tolloid-like 1 (TLL1), functional enzyme lacking the signal peptide and the latency pro-domain; encoded by nucleotides 1089-3686 of NM_012464.4 (mRNA variant 1 TLL1); mutation found in ASD6 patients, in the catalytic domain; Same construct as m1 (procollagen I alpha 1 signal peptide for secretion, C-terminal 7xHis) with the point mutation; also called Met182Leu; mutation 1; source: HT-1080 …) AATSRTERIWPGGVIPYVIGGNFTGSQRAMFKQALRHWEKHTCVTFIERSDEESYIVFTYRPCGCCSYVGRRGNGPQAISIGKNCDKFGIVVHELGHVIGFWHEHTRPDRDNHVTIIRENIQPGQEYNFLKMEPGEVNSLGERYDFDSIMHYARNTFSRGMFLDTILPSRDDNGIRPAIGQRTRLSKGDIAQARKLYRCPACGETLQESNGNLSSPGFPNGYPSYTHCIWRVSVTPGEKIVLNFTTMDLYKSSLCWYDYIEVRDGYWRKSPLLGRFCGDKLPEVLTSTDSRMWIEFRSSSNWVGKGFAAVYEAICGGEIRKNEGQIQSPNYPDDYRPMKECVWKITVSESYHVGLTFQSFEIERHDNCAYDYLEVRDGTSENSPLIGRFCGYDKPEDIRSTSNTLWMKFVSDGTVNKAGFAANFFKEEDECAKPDRGGCEQRCLNTLGSYQCACEPGYELGPDRRSCEAACGGLLTKLNGTITTPGWPKEYPPNKNCVWQVVAPTQYRISVKFEFFELEGNEVCKYDYVEIWSGLSSESKLHGKFCGAEVPEVITSQFNNMRIEFKSDNTVSKKGFKAHFFSDKDECSKDNGGCQHECVNTMGSYMCQCRNGFVLHDNKHDCKEAECEQKIHSPSGLITSPNWPDKYPSRKECTWEISATPGHRIKLAFSEFEIEQHQECAYDHLEVFDGETEKSPILGRLCGNKIPDPLVATGNKMFVRFVSDASVQRKGFQATHSTECGGRLKAESKPRDLYSHAQFGDNNYPGQVDCEWLLVSERGSRLELSFQTFEVEEEADCGYDYVELFDGLDSTAVGLGRFCGSGPPEEIYSIGDSVLIHFHTDDTINKKGFHIRYKSIRYPDTTHTKK
